Biological target: T1, recombinant human IgE (human, UniProt P01854-1 1-428)
T1 construct: made in-house (ALK); preloaded on immobilised FcεRIα in the displacement ELISA
Assay: IgE-FcεRIα displacement ELISA
Method in brief: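 Streptavidin-coated plates carried site-specifically biotinylated recombinant human FcεRIα, loaded with recombinant human IgE at 13 ng/ml. sdAbs in a pM–μM series were added for 1 h, and displaced IgE was washed off. Percent displacement was the signal reduction versus the no-sdAb control, giving EC50 and maximal effect.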

T1 sequence (P01854 other isoform, or with tags, fused parts or gaps): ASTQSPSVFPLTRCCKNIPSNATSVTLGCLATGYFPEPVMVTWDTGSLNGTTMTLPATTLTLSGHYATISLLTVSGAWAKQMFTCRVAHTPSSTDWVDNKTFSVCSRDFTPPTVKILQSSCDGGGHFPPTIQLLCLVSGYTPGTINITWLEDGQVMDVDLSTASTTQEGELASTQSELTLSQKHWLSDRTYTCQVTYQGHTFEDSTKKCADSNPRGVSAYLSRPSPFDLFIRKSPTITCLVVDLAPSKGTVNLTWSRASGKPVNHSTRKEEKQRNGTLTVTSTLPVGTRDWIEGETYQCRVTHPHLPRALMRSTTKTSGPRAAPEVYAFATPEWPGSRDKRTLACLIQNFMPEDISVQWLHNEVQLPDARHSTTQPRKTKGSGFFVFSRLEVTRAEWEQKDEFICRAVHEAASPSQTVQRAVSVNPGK

Row | Binder | EC50 | Max effect
1 | CIgG4B1A1(G2S) (Fc fusion) chain 1: GPPCPPCPAPEFLGGPSVFLFPPKPKDTLMISRTPEVTCVVVDVSQEDPEVQFNWYVDGVEVHNAKTKPREEQFNSTYRVVSVLTVLHQDWLNGKEYKCKVSNKGLPSSIEKTISKAKGQPREPQVYTLPPCQEEMTKNQVSLWCLVKGFYPSDIAVEWESNGQPENNYKTTPPVLDSDGSFFLYSRLTVDKSRWQEGNVFSCSVMHEALHNHYTQKSLSLSLGKGGSQVQLQESGGGLVQTGGSLRLSCAVHGRTFSNTGMGWFRQAPGNERQFVAIISPSGTSTYYADSVKGRFTISRDPAKNTVYLQMNSLKMDDTAVYYCAASYGSNWSTLRHQRRNEYDAWGQGTQVAVS chain 2: GPPCPPCPAPEFLGGPSVFLFPPKPKDTLMISRTPEVTCVVVDVSQEDPEVQFNWYVDGVEVHNAKTKPREEQFNSTYRVVSVLTVLHQDWLNGKEYKCKVSNKGLPSSIEKTISKAKGQPREPQVCTLPPSQEEMTKNQVSLSCAVKGFYPSDIAVEWESNGQPENNYKTTPPVLDSDGSFFLVSRLTVDKSRWQEGNVFSCSVMHEALHNHYTQKSLSLSLGKGGSEVQLLESGGGLVQPGGSLRLSCAASGFTFGNYDMAWVRQAPGKRPEWVSSIDTGGDITHYADSVKGRFTISRDNAKNTLYLQMNSLRPEDTAVYWCATDEEYALGPNEFDYYGQGTLVTVSS | 3.4 nM | > 95%
2 | CIgG4B1A1(G3S) (Fc fusion) chain 1: GPPCPPCPAPEFLGGPSVFLFPPKPKDTLMISRTPEVTCVVVDVSQEDPEVQFNWYVDGVEVHNAKTKPREEQFNSTYRVVSVLTVLHQDWLNGKEYKCKVSNKGLPSSIEKTISKAKGQPREPQVYTLPPCQEEMTKNQVSLWCLVKGFYPSDIAVEWESNGQPENNYKTTPPVLDSDGSFFLYSRLTVDKSRWQEGNVFSCSVMHEALHNHYTQKSLSLSLGKGGGSQVQLQESGGGLVQTGGSLRLSCAVHGRTFSNTGMGWFRQAPGNERQFVAIISPSGTSTYYADSVKGRFTISRDPAKNTVYLQMNSLKMDDTAVYYCAASYGSNWSTLRHQRRNEYDAWGQGTQVAVS chain 2: GPPCPPCPAPEFLGGPSVFLFPPKPKDTLMISRTPEVTCVVVDVSQEDPEVQFNWYVDGVEVHNAKTKPREEQFNSTYRVVSVLTVLHQDWLNGKEYKCKVSNKGLPSSIEKTISKAKGQPREPQVCTLPPSQEEMTKNQVSLSCAVKGFYPSDIAVEWESNGQPENNYKTTPPVLDSDGSFFLVSRLTVDKSRWQEGNVFSCSVMHEALHNHYTQKSLSLSLGKGGGSEVQLLESGGGLVQPGGSLRLSCAASGFTFGNYDMAWVRQAPGKRPEWVSSIDTGGDITHYADSVKGRFTISRDNAKNTLYLQMNSLRPEDTAVYWCATDEEYALGPNEFDYYGQGTLVTVSS | 3.1 nM | > 95%
3 | CIgG4B1A1(G2SG2S) (Fc fusion) chain 1: GPPCPPCPAPEFLGGPSVFLFPPKPKDTLMISRTPEVTCVVVDVSQEDPEVQFNWYVDGVEVHNAKTKPREEQFNSTYRVVSVLTVLHQDWLNGKEYKCKVSNKGLPSSIEKTISKAKGQPREPQVYTLPPCQEEMTKNQVSLWCLVKGFYPSDIAVEWESNGQPENNYKTTPPVLDSDGSFFLYSRLTVDKSRWQEGNVFSCSVMHEALHNHYTQKSLSLSLGKGGSGGSQVQLQESGGGLVQTGGSLRLSCAVHGRTFSNTGMGWFRQAPGNERQFVAIISPSGTSTYYADSVKGRFTISRDPAKNTVYLQMNSLKMDDTAVYYCAASYGSNWSTLRHQRRNEYDAWGQGTQVAVS chain 2: GPPCPPCPAPEFLGGPSVFLFPPKPKDTLMISRTPEVTCVVVDVSQEDPEVQFNWYVDGVEVHNAKTKPREEQFNSTYRVVSVLTVLHQDWLNGKEYKCKVSNKGLPSSIEKTISKAKGQPREPQVCTLPPSQEEMTKNQVSLSCAVKGFYPSDIAVEWESNGQPENNYKTTPPVLDSDGSFFLVSRLTVDKSRWQEGNVFSCSVMHEALHNHYTQKSLSLSLGKGGSGGSEVQLLESGGGLVQPGGSLRLSCAASGFTFGNYDMAWVRQAPGKRPEWVSSIDTGGDITHYADSVKGRFTISRDNAKNTLYLQMNSLRPEDTAVYWCATDEEYALGPNEFDYYGQGTLVTVSS | 3.8 nM | > 95%
4 | CIgG4B1A1(EAAAK) (Fc fusion) chain 1: GPPCPPCPAPEFLGGPSVFLFPPKPKDTLMISRTPEVTCVVVDVSQEDPEVQFNWYVDGVEVHNAKTKPREEQFNSTYRVVSVLTVLHQDWLNGKEYKCKVSNKGLPSSIEKTISKAKGQPREPQVYTLPPCQEEMTKNQVSLWCLVKGFYPSDIAVEWESNGQPENNYKTTPPVLDSDGSFFLYSRLTVDKSRWQEGNVFSCSVMHEALHNHYTQKSLSLSLGKEAAAKQVQLQESGGGLVQTGGSLRLSCAVHGRTFSNTGMGWFRQAPGNERQFVAIISPSGTSTYYADSVKGRFTISRDPAKNTVYLQMNSLKMDDTAVYYCAASYGSNWSTLRHQRRNEYDAWGQGTQVAVS chain 2: GPPCPPCPAPEFLGGPSVFLFPPKPKDTLMISRTPEVTCVVVDVSQEDPEVQFNWYVDGVEVHNAKTKPREEQFNSTYRVVSVLTVLHQDWLNGKEYKCKVSNKGLPSSIEKTISKAKGQPREPQVCTLPPSQEEMTKNQVSLSCAVKGFYPSDIAVEWESNGQPENNYKTTPPVLDSDGSFFLVSRLTVDKSRWQEGNVFSCSVMHEALHNHYTQKSLSLSLGKEAAAKEVQLLESGGGLVQPGGSLRLSCAASGFTFGNYDMAWVRQAPGKRPEWVSSIDTGGDITHYADSVKGRFTISRDNAKNTLYLQMNSLRPEDTAVYWCATDEEYALGPNEFDYYGQGTLVTVSS | 3 nM | > 95%
5 | CIgG4B1A1(EAAAK)2 (Fc fusion) chain 1: GPPCPPCPAPEFLGGPSVFLFPPKPKDTLMISRTPEVTCVVVDVSQEDPEVQFNWYVDGVEVHNAKTKPREEQFNSTYRVVSVLTVLHQDWLNGKEYKCKVSNKGLPSSIEKTISKAKGQPREPQVYTLPPCQEEMTKNQVSLWCLVKGFYPSDIAVEWESNGQPENNYKTTPPVLDSDGSFFLYSRLTVDKSRWQEGNVFSCSVMHEALHNHYTQKSLSLSLGKEAAAKEAAAKQVQLQESGGGLVQTGGSLRLSCAVHGRTFSNTGMGWFRQAPGNERQFVAIISPSGTSTYYADSVKGRFTISRDPAKNTVYLQMNSLKMDDTAVYYCAASYGSNWSTLRHQRRNEYDAWGQGTQVAVS chain 2: GPPCPPCPAPEFLGGPSVFLFPPKPKDTLMISRTPEVTCVVVDVSQEDPEVQFNWYVDGVEVHNAKTKPREEQFNSTYRVVSVLTVLHQDWLNGKEYKCKVSNKGLPSSIEKTISKAKGQPREPQVCTLPPSQEEMTKNQVSLSCAVKGFYPSDIAVEWESNGQPENNYKTTPPVLDSDGSFFLVSRLTVDKSRWQEGNVFSCSVMHEALHNHYTQKSLSLSLGKEAAAKEAAAKEVQLLESGGGLVQPGGSLRLSCAASGFTFGNYDMAWVRQAPGKRPEWVSSIDTGGDITHYADSVKGRFTISRDNAKNTLYLQMNSLRPEDTAVYWCATDEEYALGPNEFDYYGQGTLVTVSS | 4.1 nM | > 95%
6 | B1A1(G4S)4 (bispecific antibody, two sdAbs linked by a peptide linker) QVQLQESGGGLVQTGGSLRLSCAVHGRTFSNTGMGWFRQAPGNERQFVAIISPSGTSTYYADSVKGRFTISRDPAKNTVYLQMNSLKMDDTAVYYCAASYGSNWSTLRHQRRNEYDAWGQGTQVAVSGGGGSGGGGSGGGGSGGGGSEVQLLESGGGLVQPGGSLRLSCAASGFTFGNYDMAWVRQAPGKRPEWVSSIDTGGDITHYADSVKGRFTISRDNAKNTLYLQMNSLRPEDTAVYWCATDEEYALGPNEFDYYGQGTLVTVS | 1.9 nM | > 95%
7 | A1B1(G4S)4 (bispecific antibody) EVQLLESGGGLVQPGGSLRLSCAASGFTFGNYDMAWVRQAPGKRPEWVSSIDTGGDITHYADSVKGRFTISRDNAKNTLYLQMNSLRPEDTAVYWCATDEEYALGPNEFDYYGQGTLVTVSGGGGSGGGGSGGGGSGGGGSQVQLQESGGGLVQTGGSLRLSCAVHGRTFSNTGMGWFRQAPGNERQFVAIISPSGTSTYYADSVKGRFTISRDPAKNTVYLQMNSLKMDDTAVYYCAASYGSNWSTLRHQRRNEYDAWGQGTQVAVS | 0.9 nM | > 95%
8 | B2A1(G4S)4 (bispecific antibody) QVQLVESGGGLVQAGGSLRLSCAVFGSTFSNNVADWYRQAPGKQRELVARISASGATREYGDSVKGRFTISRDDAKNTMYLQMNNLKPEDTAVYRCHKIEWEDLSRKDYWGQGTQVTVSGGGGSGGGGSGGGGSGGGGSEVQLLESGGGLVQPGGSLRLSCAASGFTFGNYDMAWVRQAPGKRPEWVSSIDTGGDITHYADSVKGRFTISRDNAKNTLYLQMNSLRPEDTAVYWCATDEEYALGPNEFDYYGQGTLVTVS | 30 nM | > 95%
9 | A1B2(G4S)4 (bispecific antibody) EVQLLESGGGLVQPGGSLRLSCAASGFTFGNYDMAWVRQAPGKRPEWVSSIDTGGDITHYADSVKGRFTISRDNAKNTLYLQMNSLRPEDTAVYWCATDEEYALGPNEFDYYGQGTLVTVSGGGGSGGGGSGGGGSGGGGSQVQLVESGGGLVQAGGSLRLSCAVFGSTFSNNVADWYRQAPGKQRELVARISASGATREYGDSVKGRFTISRDDAKNTMYLQMNNLKPEDTAVYRCHKIEWEDLSRKDYWGQGTQVTVS | 1.4 nM | > 95%
10 | B3A1(G4S)4 (bispecific antibody) DVQLQESGGGLVQAGGSLRLSCAASGFIFRLAGMSWVRQAPGKGFEWVSGITMDGSTTNYADSVKGRFTISRDNSKNRLYLQMNSLKPEDTAVYYCARGAKGGYNDPRGQGTQVTVSGGGGSGGGGSGGGGSGGGGSEVQLLESGGGLVQPGGSLRLSCAASGFTFGNYDMAWVRQAPGKRPEWVSSIDTGGDITHYADSVKGRFTISRDNAKNTLYLQMNSLRPEDTAVYWCATDEEYALGPNEFDYYGQGTLVTVS | 0.3 nM | > 95%
11 | A1B3(G4S)4 (bispecific antibody) EVQLLESGGGLVQPGGSLRLSCAASGFTFGNYDMAWVRQAPGKRPEWVSSIDTGGDITHYADSVKGRFTISRDNAKNTLYLQMNSLRPEDTAVYWCATDEEYALGPNEFDYYGQGTLVTVSGGGGSGGGGSGGGGSGGGGSDVQLQESGGGLVQAGGSLRLSCAASGFIFRLAGMSWVRQAPGKGFEWVSGITMDGSTTNYADSVKGRFTISRDNSKNRLYLQMNSLKPEDTAVYYCARGAKGGYNDPRGQGTQVTVS | 190 nM | 80%
12 | D2A1(G4S)4 (bispecific antibody) DVQLQESGGGLVEAGGSLRLSCVASGRTFSGWSMGWFRQAPGKEREFVAAISWVGSWIGGTVYSNSVKGRFTISRDNARTTVYLQMNSLKPEDTAVYFCAAANSETPRIFASEYDYWGQGTQVTVSGGGGSGGGGSGGGGSGGGGSEVQLLESGGGLVQPGGSLRLSCAASGFTFGNYDMAWVRQAPGKRPEWVSSIDTGGDITHYADSVKGRFTISRDNAKNTLYLQMNSLRPEDTAVYWCATDEEYALGPNEFDYYGQGTLVTVS | 8 nM | > 95%
